# Source: PMC5342210, “Staphylococcal protein Ecb impairs complement receptor-1 mediated recognition of opsonized bacteria” (PLoS ONE, 2017)
# B1: Factor H (FH) (natural protein)
# chain: EDCNELPPRRNTEILTGSWSDQTYPEGTQAIYKCRPGYRSLGNVIMVCRKGEWVALNPLRKCQKRPCGHPGDTPFGTFTLTGGNVFEYGVKAVYTCNEGYQLLGEINYRECDTDGWTNDIPICEVVKCLPVTAPENGKIVSSAMEPDREYHFGQAVRFVCNSGYKIEGDEEMHCSDDGFWSKEKPKCVEISCKSPDVINGSPISQKIIYKENERFQYKCNMGYEYSERGDAVCTESGWRPLPSCEEKSCDNPYIPNGDYSPLRIKHRTGDEITYQCRNGFYPATRGNTAKCTSTGWIPAPRCTLKPCDYPDIKHGGLYHENMRRPYFPVAVGKYYSYYCDEHFETPSGSYWDHIHCTQDGWSPAVPCLRKCYFPYLENGYNQNYGRKFVQGKSIDVACHPGYALPKAQTTVTCMENGWSPTPRCIRVKTCSKSSIDIENGFISESQYTYALKEKAKYQCKLGYVTADGETSGSITCGKDGWSAQPTCIKSCDIPVFMNARTKNDFTWFKLNDTLDYECHDGYESNTGSTTGSIVCGYNGWSDLPICYERECELPKIDVHLVPDRKKDQYKVGEVLKFSCKPGFTIVGPNSVQCYHFGLSPDLPICKEQVQSCGPPPELLNGNVKEKTKEEYGHSEVVEYYCNPRFLMKGPNKIQCVDGEWTTLPVCIVEESTCGDIPELEHGWAQLSSPPYYYGDSVEFNCSESFTMIGHRSITCIHGVWTQLPQCVAIDKLKKCKSSNLIILEEHLKNKKEFDHNSNIRYRCRGKEGWIHTVCINGRWDPEVNCSMAQIQLCPPPPQIPNSHNMTTTLNYRDGEKVSVLCQENYLIQEGEEITCKDGRWQSIPLCVEKIPCSQPPQIEHGTINSSRSSQESYAHGTKLSYTCEGGFRISEENETTCYMGKWSSPPQCEGLPCKSPPEISHGVVAHMSDSYQYGEEVTYKCFEGFGIDGPAIAKCLGEKWSHPPSCIKTDCLSLPSFENAIPMGEKKDVYKAGEQVTYTCATYYKMDGASNVTCINSRWTGRPTCRDTSCVNPPTVQNAYIVSRQMSKYPSGERVRYQCRSPYEMFGDEEVMCLNGNWTEPPQCKDSTGKCGPPPPIDNGDITSFPLSVYAPASSVEYQCQNLYQLEGNKRITCRNGQWSEPPKCLHPCVISREIMENYNIALRWTAKQKLYSRTGESVEFVCKRGYRLSSRSHTLRTTCWDGKLEYPTCAKR
# notes: complement factor H, plasma regulator; source: purified from plasma
# Key:
# C3b [1] = target: C3b (UniProt P01024); experiment: radioligand binding; C3b (5 ug/ml) coated on microtiter wells, blocked with 0.5% BSA; 125I-sCR1 (30,000 cpm) mixed with the unlabelled protein (0-0.33 uM) in 1/2 PBS with 0.1% BSA; 60 min, 37 C; bound radioactivity counted
# Target sequence in this assay (P01024 23-667, chain 1 of 2): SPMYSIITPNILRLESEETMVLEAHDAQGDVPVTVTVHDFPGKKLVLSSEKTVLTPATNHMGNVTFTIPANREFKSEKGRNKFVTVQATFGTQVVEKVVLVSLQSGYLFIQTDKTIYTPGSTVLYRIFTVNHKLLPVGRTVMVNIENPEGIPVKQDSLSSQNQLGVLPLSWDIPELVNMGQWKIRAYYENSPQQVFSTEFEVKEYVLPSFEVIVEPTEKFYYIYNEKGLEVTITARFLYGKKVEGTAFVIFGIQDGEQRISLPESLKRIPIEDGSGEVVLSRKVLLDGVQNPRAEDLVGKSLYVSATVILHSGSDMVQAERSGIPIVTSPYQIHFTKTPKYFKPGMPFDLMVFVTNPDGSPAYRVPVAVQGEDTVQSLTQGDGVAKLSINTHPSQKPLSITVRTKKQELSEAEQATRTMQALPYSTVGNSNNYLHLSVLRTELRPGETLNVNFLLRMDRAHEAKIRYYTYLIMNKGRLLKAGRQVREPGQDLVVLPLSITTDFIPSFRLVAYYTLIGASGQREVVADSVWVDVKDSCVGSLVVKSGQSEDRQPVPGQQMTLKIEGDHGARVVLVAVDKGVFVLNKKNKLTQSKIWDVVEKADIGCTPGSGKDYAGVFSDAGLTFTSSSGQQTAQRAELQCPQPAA
# Target sequence in this assay (P01024 749-1663, chain 2 of 2): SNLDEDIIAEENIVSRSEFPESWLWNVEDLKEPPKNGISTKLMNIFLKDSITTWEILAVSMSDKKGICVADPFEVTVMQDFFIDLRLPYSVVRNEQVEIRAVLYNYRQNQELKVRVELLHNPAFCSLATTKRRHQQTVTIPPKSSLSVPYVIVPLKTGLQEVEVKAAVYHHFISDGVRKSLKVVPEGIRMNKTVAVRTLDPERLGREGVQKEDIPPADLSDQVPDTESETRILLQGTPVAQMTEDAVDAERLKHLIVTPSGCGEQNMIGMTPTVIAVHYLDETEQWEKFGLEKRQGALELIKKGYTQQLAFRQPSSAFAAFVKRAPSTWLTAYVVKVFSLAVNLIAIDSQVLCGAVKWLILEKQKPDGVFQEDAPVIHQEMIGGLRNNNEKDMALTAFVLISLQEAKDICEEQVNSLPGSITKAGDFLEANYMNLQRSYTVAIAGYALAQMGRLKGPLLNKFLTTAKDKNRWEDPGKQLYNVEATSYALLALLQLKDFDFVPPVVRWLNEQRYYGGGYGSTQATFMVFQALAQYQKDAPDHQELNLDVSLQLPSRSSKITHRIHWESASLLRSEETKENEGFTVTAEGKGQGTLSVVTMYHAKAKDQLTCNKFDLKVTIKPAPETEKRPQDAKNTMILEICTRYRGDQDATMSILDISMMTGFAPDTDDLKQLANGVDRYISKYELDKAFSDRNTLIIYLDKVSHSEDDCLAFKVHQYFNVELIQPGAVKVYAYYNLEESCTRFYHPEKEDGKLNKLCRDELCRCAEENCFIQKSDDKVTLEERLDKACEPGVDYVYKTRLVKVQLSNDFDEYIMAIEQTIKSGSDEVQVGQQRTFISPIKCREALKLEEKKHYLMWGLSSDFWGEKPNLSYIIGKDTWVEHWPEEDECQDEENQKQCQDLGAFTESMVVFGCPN
# C3b [2] = target: T1, C3b (UniProt P01024); experiment: as above; conditions: both partners purified
# T1 construct: complement C3 beta chain, as it stands in C3b; alpha'-chain of C3b, the cut product of the C3 alpha chain (here made with trypsin); the C3b was detected with anti-human C3 and anti-human C3c antibodies; also called solid-phase C3b; source: C3 purified from plasma; C3b prepared from C3 using trypsin
# T1 sequence (P01024 23-667, chain 1 of 2): as the sequence (P01024 23-667, chain 1 of 2) above
# T1 sequence (P01024 749-1663, chain 2 of 2): as the sequence (P01024 749-1663, chain 2 of 2) above
Molecule,percent inhibition of sCR1 binding to C3b (C3b [1]) [%],binding result (C3b [2])
Extracellular complement binding protein (Ecb) (natural protein),80,
B1,,binds
